From PMC7250872, “Repression of the lysogenic PR promoter in bacteriophage TP901-1 through binding of a CI-MOR complex to a composite OM-OR operator” (Scientific Reports, 2020)

Columns and labels:
[1] = biological target: MOR (Modulator Of Repression) of bacteriophage TP901-1, wild type, untagged (bacteriophage TP901-1) (UniProt O48504); experiment: cross-linking; 0.05% glutaraldehyde, room temperature, 0-60 min, 20 mM HEPES pH 7.5, 200 mM NaCl (100 mM salt by p-0027); CI about 20 uM, MOR 4 or 20 uM, alone or together; SDS PAGE, coomassie
[2] = biological target: the molecule itself; experiment: as above
[3] = biological target: T1, CI-NTD89-His6 (CI N-terminal domain 1-80 plus linker 81-89) (bacteriophage TP901-1, UniProt O48503 1-89); experiment: SEC; Superdex 75 Prep Grad, 20 mM Tris, 100 mM NaCl, pH 7.4; CI-NTD89 and MOR mixed in about 4:1 molar ratio; details: both partners purified
T1 construct: CI repressor, lactococcal bacteriophage TP901-1, N-terminal domain (1-80) and flexible linker (81-89); also called CI-NTD_(1-89); source: E. coli BL21 (pET30a(+)), purified (His-Trap, SEC)
T1 sequence (looked up): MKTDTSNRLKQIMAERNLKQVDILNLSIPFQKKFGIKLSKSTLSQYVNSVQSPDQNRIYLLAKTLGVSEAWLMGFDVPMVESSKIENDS

Question: With “MOR (Modulator Of Repression) of bacteriophage TP901-1, wild type, untagged (from UniProt O48504 1-72) (natural protein)” as the molecule, how does the stoichiometry N [1] read?
Answer: 2

B1: CI repressor of bacteriophage TP901-1, wild type, untagged (natural protein, UniProt O48503 1-180, looked up)
chain: MKTDTSNRLKQIMAERNLKQVDILNLSIPFQKKFGIKLSKSTLSQYVNSVQSPDQNRIYLLAKTLGVSEAWLMGFDVPMVESSKIENDSENIEETITVMKKLEEPRQKVVLDTAKIQLKEQDEQNKVKQIEDYRLSDEYLEEQISKASAYGGGQLNDNDKEFFKRLLKNTLKEKIDKGDL
notes: CI repressor, lactococcal bacteriophage TP901-1; also called native CI repressor; full length CI; source: E. coli AJ159 (cI in expression vector pUHE23-2), in cell extract; also purified (eluted from the DNA pellet with 1 M NaCl; pooled fractions from Superdex gel filtration)
Question: How did the “stoichiometry N” value [2] turn out when B1 was run?
Answer: 2

B2: MOR (1-72) released from GST-MOR by thrombin (natural protein, bacteriophage TP901-1, UniProt O48504 1-72, looked up)
chain: MSYDYSSLLGKITEKCGTQYNFAIAMGLSERTVSLKLNDKVTWKDDEILKAVHVLELNPQDIPKYFFNAKVH
notes: MOR (Modulator Of Repression), lactococcal bacteriophage TP901-1, residues 1-72; also called cleaved MOR; source: E. coli BL21 (pGEX4-2, GST-MOR), purified (GST-Trap, thrombin cleavage on the column, SEC)
Question: For B2, which “stoichiometry N” value [3] is on record?
Answer: 1
